Read-outs that look alike come from different tables or passages of the source. Bounds are passed on as bounds.

This passage reports percent of geminin co-fractionating with Cdt1/RLF-B and percent of geminin in the smaller complex without Cdt1/RLF-B results from publication PMC3605701.

Assay in all cases: SEC
In assay [1] the target is endogenous Xenopus Cdt1/RLF-B (Xenopus (endogenous in egg extract)) (UniProt Q9I9A7).
The target is the same in assay [2]. The source holds these as a separate data set.
Assay [3] shares this target. The source holds these as a separate data set.

Chain of UniProt Q9I9A7 (Q9I9A7 whole entry): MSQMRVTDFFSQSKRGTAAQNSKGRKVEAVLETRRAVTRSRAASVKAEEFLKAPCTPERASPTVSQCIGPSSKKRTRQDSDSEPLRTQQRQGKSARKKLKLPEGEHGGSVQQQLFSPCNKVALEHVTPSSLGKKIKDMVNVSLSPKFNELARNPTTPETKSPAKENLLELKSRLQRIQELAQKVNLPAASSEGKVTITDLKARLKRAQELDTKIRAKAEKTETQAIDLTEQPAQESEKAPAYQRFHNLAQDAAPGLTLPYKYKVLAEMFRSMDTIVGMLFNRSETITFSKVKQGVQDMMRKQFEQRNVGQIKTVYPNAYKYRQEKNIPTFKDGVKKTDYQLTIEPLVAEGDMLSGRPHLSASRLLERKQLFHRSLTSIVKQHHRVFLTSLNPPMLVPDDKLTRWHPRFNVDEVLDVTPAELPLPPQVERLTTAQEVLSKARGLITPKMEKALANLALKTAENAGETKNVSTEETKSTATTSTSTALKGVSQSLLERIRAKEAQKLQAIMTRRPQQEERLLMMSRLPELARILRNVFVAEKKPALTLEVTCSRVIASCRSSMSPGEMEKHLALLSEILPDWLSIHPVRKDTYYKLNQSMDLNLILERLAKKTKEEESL

As for “endogenous Xenopus geminin (from UniProt O93352 1-219) (natural protein)”, the percent of geminin co-fractionating with Cdt1/RLF-B in assay [1] was found to be 61%; in assay [2], 24%; in assay [3], 45%. Besides, the percent of geminin in the smaller complex without Cdt1/RLF-B in assay [1] is greater than 95%.
